# Changes are numbered by the printed parent chain.
# B1: anti-c-Met HuMab 035 (IgG1) (antibody, V domains shown)
# VH: EVQLVQSGAEVKKPGESLKISCKGSGYSFTSYWIGWVRQMPGKGLEWMGIIYPGDSDTRYSPSFQGQVTISADKSISTAYLQWNSLKASDTAMYYCARQEITGEFDYWGQGTLVTVSS
# VL: AIQLTQSPSSLSASVGDRVTITCRASQGISSALAWYQQKPGKAPKLLIYDASSLESGVPSRFSGSGSGTDFTLTISSLQPEDFATYYCQQFNSYPMYTFGQGTKLEIK
# notes: also called P1016-035; TH1016-035-D09
# B2: anti-c-Met HuMab 098 (IgG1) (antibody, V domains shown)
# VH: QVQLVQSGAEVKKPGASVKVSCKASGYTFTNFGISWVRQAPGQGLEWMGWISAFNGHTDYSQKVQGRVTMTTDTSTSTAYMELRSLRSDDTAVFYCARSHYYGSGSPFDYWGQGTLVTVSS
# VL: DIQMTQSPSSLSASVGDRVTITCRASQGISNWLAWYQQKPEKAPKSLIYAASSLQSGVPSRFSGSGSGTDFTLTISSLQPEDFATYYCHQYKSYPWTFGQGTKVEIK
# notes: also called TH1016-098; PC1016-098
# B3: IgG1-1016-069 (antibody, V domains shown)
# VH: QVQLVQSGAEVKKPGASVKVSCETSGYTFTSYGISWVRQAPGHGLEWMGWISAYNGYTNYAQKLQGRVTMTTDTSTSTAYMELRSLRSDDTAVYYCARDLRGTNYFDYWGQGTLVTVSS
# VL: DIQMTQSPSSVSASVGDRVTITCRASQGISNWLAWFQHKPGKAPKLLIYAASSLLSGVPSRFSGSGSGTDFTLTISSLQPEDFATYYCQQANSFPITFGQGTRLEIK
# notes: also called clone 069; TH1016-069
# B4: anti-c-Met HuMab 181 (IgG1) (antibody, V domains shown)
# VH: B3 VH with E23K, T24A, H43Q, A53T, N104A
# VL: B3 VL with F36Y
# notes: also called TH1016-181; PC1016-181
# B5: anti-c-Met HuMab 045 (IgG1) (antibody, V domains shown)
# VH: EVQLLESGGGLVQPGGSLRLSCAASGFTFSSYAMSWVRQAPGKGLEWVSVISGSGGITYYADSVKGRFTISRDNSKNTLYLQMNSLRAEDTAVYYCARDRGWGSDYWGQGTLVTVSS
# VL: EIVLTQSPATLSLSPGERATLSCRASQSVSSYLAWYQQKPGQAPRLLIYDASNRATGIPARFSGSGSGTDFTLTISSLEPEDFAVYYCQQRSNWPFTFGPGTKVDIK
# notes: also called TH1016-045; PC1016-045
# Target: T1, cMetECDHis (human, UniProt P08581 25-932, limits assumed, biotinylated in the cross-block ELISA of Example 17)
# T1 construct: Expressed in HEK-293F cells; also called soluble cMetECDHis; biotinylated cMetECDHis
# Experiment: cross-block ELISA; competitor 5D5
# Procedure: (§1) First, the optimal coating concentrations of the tested anti-c-Met antibodies and the optimal cMetECDHis concentration were determined. Therefore, ELISA wells were coated overnight at 4° C. with anti-c-Met HuMabs serially diluted in PBS (8 μg/mL in 2-fold dilutions). Next, the ELISA wells were washed with PBST (PBS supplemented with 0.05% Tween-20 [Sigma-Aldrich, Zwijndrecht, The Netherlands]) and blocked for one hour at room temperature (RT) with PBSTC (PBST supplemented 2% [v/v] chicken serum [Gibco, Paisley, Scotland]). Subsequently, the ELISA wells were washed with PBST and incubated for one hour at RT with biotinylated cMetECDHis serially diluted in PBSTC (1 μg/mL in 2-fold dilutions). Unbound biotinylated cMetECDHis was washed away with PBST, and bound biotinylated cMetECDHis was incubated for one hour at RT with 0.1 μg/mL Streptavidin-poly-HRP (Sanquin, Amsterdam, The Netherlands) diluted in PBST.
# (§2) ELISA wells were coated with anti-c-Met antibody at a sub-optimal dose as described above. After blocking of the ELISA wells, they were incubated with the predetermined concentration of biotinylated cMetECDHis in the presence of an excess of anti-c-Met antibody. The reaction was developed as described above. Residual binding was expressed as a percentage relative to the binding observed in the absence of competitor antibody.
row,"residual binding, % of no competitor [%]",Binder
1,25.5,B1
2,94.9,B2
3,99.4,B3
4,94.2,B4
5,27.8,B5

# Target: T1, cMetECDHis
# Experiment: cross-block ELISA; competitor 068
# Procedure: as §1, §2
row,"residual binding, % of no competitor [%]",Binder
1,175,B1
2,18,B2
3,10.1,B3
4,6.5,B4
5,113,B5

# Target: T1, cMetECDHis
# Experiment: cross-block ELISA; competitor 101
# Procedure: as §1, §2
row,"residual binding, % of no competitor [%]",Binder
1,113,B1
2,4,B2
3,3.9,B3
4,2.4,B4
5,102,B5

# Target: T1, cMetECDHis
# Experiment: cross-block ELISA; competitor 098
# Procedure: as §1, §2
row,"residual binding, % of no competitor [%]",Binder
1,126,B1
2,2.6,B2
3,12.5,B3
4,5.1,B4
5,76.4,B5

# Target: T1, cMetECDHis
# Experiment: cross-block ELISA; competitor 062
# Procedure: as §1, §2
row,"residual binding, % of no competitor [%]",Binder
1,120,B1
2,8.8,B2
3,2.2,B3
4,2,B4
5,103,B5

# Target: T1, cMetECDHis
# Experiment: cross-block ELISA; competitor 024
# Procedure: as §1, §2
row,"residual binding, % of no competitor [%]",Binder
1,121,B1
2,12.9,B2
3,6.6,B3
4,4.3,B4
5,102,B5

# Target: T1, cMetECDHis
# Experiment: cross-block ELISA; competitor 008
# Procedure: as §1, §2
row,"residual binding, % of no competitor [%]",Binder
1,7.2,B1
2,99.8,B2
3,102,B3
4,98.7,B4
5,98.5,B5

# Target: T1, cMetECDHis
# Experiment: cross-block ELISA; competitor 006
# Procedure: as §1, §2
row,"residual binding, % of no competitor [%]",Binder
1,33,B1
2,97.9,B2
3,100,B3
4,93.7,B4
5,111,B5

# Target: T1, cMetECDHis
# Experiment: cross-block ELISA; competitor 181
# Procedure: as §1, §2
row,"residual binding, % of no competitor [%]",Binder
1,159,B1
2,12,B2
3,6.3,B3
4,3.6,B4
5,99.4,B5

# Target: T1, cMetECDHis
# Experiment: cross-block ELISA; competitor 022
# Procedure: as §1, §2
row,"residual binding, % of no competitor [%]",Binder
1,54.6,B1
2,95.8,B2
3,97.8,B3
4,92.5,B4
5,105,B5

# Target: T1, cMetECDHis
# Experiment: cross-block ELISA; competitor 069
# Procedure: as §1, §2
row,"residual binding, % of no competitor [%]",Binder
1,151,B1
2,3.4,B2
3,2.4,B3
4,2.2,B4
5,97,B5

# Target: T1, cMetECDHis
# Experiment: cross-block ELISA; competitor 045
# Procedure: as §1, §2
row,"residual binding, % of no competitor [%]",Binder
1,125,B1
2,96.7,B2
3,99.8,B3
4,96.8,B4
5,21.3,B5

# Target: T1, cMetECDHis
# Experiment: cross-block ELISA; competitor 035
# Procedure: as §1, §2
row,"residual binding, % of no competitor [%]",Binder
1,10.6,B1
2,89.4,B2
3,91.7,B3
4,96,B4
5,105,B5

# Target: T1, cMetECDHis
# Experiment: cross-block ELISA; competitor 064
# Procedure: as §1, §2
row,"residual binding, % of no competitor [%]",Binder
1,132,B1
2,9.3,B2
3,2.3,B3
4,2.1,B4
5,104,B5

# Target: T1, cMetECDHis
# Experiment: cross-block ELISA; competitor G11-HZ
# Procedure: as §1, §2
row,"residual binding, % of no competitor [%]",Binder
1,7.8,B1
2,99.6,B2
3,110,B3
4,98.7,B4
5,99.3,B5

# Target: T1, cMetECDHis
# Experiment: BLI (Octet); antibody captured, cMetECDHis in solution
# Procedure: Antibody binding to cMetECDHis was analyzed by means of Bio-Layer Interferometry (BLI) technology on the Octet System (Fortebio, Menlo Park, USA). Anti-human IgG coated biosensors (Fc-specific) were used to capture anti-c-Met antibodies according to the procedure recommended by the manufacturer. cMetECDHis derived from HEK293 cells was loaded on top of the immobilized anti-c-Met antibodies by placing the loaded biosensor into a well containing 10 μg/mL cMetECDHis diluted in 10 times diluted kinetics buffer (Fortebio). The difference in reflection of light (AA, nm) of the biosensor surface due to the binding of cMetECDHis was measured in real time during approximately 10 minutes and was used by the Octet software (V4.0, Fortebio) to calculate the association constant (kₐ [1/M×s]). Next, the loaded biosensor was placed into a well containing only kinetics buffer (10 times diluted in PBS) to determine the dissociation constant (kd [1/s]). Kinetics analysis was performed to determine the affinity (KD [M]) using model 1:1 (langmuir). As a positive control, 0.2 μg/mL 5D5 IgG1 produced in HEK293 cells, was used.
Kd [nM],koff [s⁻¹],kon [M⁻¹ s⁻¹],Binder
13.9,0.00368,264000,B1
1.82,0.000297,164000,B2
1.26,0.000267,212000,B3
2.23,0.000531,237000,B4
2.87,0.00207,721000,B5

# Target: T1, cMetECDHis
# Experiment: cross-block ELISA; competitor 005
# Procedure: as §1, §2
row,"residual binding, % of no competitor [%]",Binder
1,36.7,B1
2,99.6,B2
3,102,B3
4,95.9,B4
5,111,B5

# From patent publication US20150329642A1 (Genmab, published 2015)
